Consider nine molecules from PMC11007443, “A selection and optimization strategy for single-domain antibodies targeting the PHF6 linear peptide within the tau intrinsically disordered protein” (The Journal of Biological Chemistry, 2024).

Experiment [1] concerns the target tau 2N4R (recombinant; 15N-labelled for NMR) (Homo sapiens, UniProt P10636-8). The experiment is described as follows: cell-based or functional assay.
Experiment [2] addresses T1, biotinylated tau 2N4R (Homo sapiens, UniProt P10636-8, biotin (N-hydroxysuccimide-biotin conjugates, 5 M excess)).
T1 construct: tau protein, 2N4R isoform, NCBI NP_005901.2; Expressed from pET15b-tau; also called full-length tau; source: E. coli BL21 (DE3), purified (heating, cation exchange), then biotinylated
The experiment is described as follows: SPR; biotinylated tau 2N4R captured on a streptavidin chip (500 RU); VHHs as analytes, 0.125-2 uM, single-cycle kinetics; HBS-EP+ buffer; 1:1 Langmuir model; Kd calculated as koff/kon. The following applies: both partners purified.

T1 sequence (P10636 other isoform, or with tags, fused parts or gaps): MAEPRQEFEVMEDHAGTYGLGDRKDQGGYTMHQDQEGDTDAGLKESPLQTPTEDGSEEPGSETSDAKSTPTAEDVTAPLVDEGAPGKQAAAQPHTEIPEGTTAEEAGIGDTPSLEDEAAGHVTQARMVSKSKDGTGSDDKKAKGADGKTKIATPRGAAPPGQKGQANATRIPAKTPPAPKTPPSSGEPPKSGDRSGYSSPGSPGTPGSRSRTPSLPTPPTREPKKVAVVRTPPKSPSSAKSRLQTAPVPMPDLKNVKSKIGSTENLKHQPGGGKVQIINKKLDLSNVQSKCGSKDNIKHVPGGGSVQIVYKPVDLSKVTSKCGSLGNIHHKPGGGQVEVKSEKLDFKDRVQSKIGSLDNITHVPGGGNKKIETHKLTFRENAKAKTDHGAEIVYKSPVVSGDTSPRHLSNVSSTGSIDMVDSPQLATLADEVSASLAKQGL
Chain of tau 2N4R (recombinant; 15N-labelled for NMR) (P10636 other isoform, or with tags, fused parts or gaps): as above

B1: VHH Z70 (VHH)
VHH: EVQLQASGGVFVQSGGSLRLSCAASGATSTFDGMGWFRQAPGKEREFVSAISYEQGSYTYYADSVKGRFTISRDNSKNMVYLQMNSLRAEDTATYYCAPAYEGDLYAFDSYGGQGTQVTVSS
notes: VHH Z70; also in PDB 7QCQ; also called parent VHH; source: E. coli BL21 (DE3), periplasm, purified (IMAC, SEC)
With B1, the “heparin-induced tau 2N4R aggregation, thioflavin fluorescence intensity ratio between tau with VHH and tau alone; VHH:tau 0.2:1 (46.2%) and 0.5:1 (25%)” value in experiment [1] stood at 46.2%. Besides, in experiment [2], the Kd was 147.8 ± 0.9 nM, the koff was 0.00267 s⁻¹ and the kon was 18100 M⁻¹ s⁻¹.

B2: VHH Z70 mutant 15 (R90G + P101S + G114E) (VHH)
VHH: EVQLQASGGVFVQSGGSLRLSCAASGATSTFDGMGWFRQAPGKEREFVSAISYEQGSYTYYADSVKGRFTISRDNSKNMVYLQMNSLGAEDTATYYCASAYEGDLYAFDSYEGQGTQVTVSS
notes: as the chain of m1 (VHH Z70); also called Mut15; source: E. coli BL21 (DE3), periplasm, purified (IMAC, SEC)
As to B2, in experiment [2], the Kd is 42.5 ± 0.7 nM, the koff is 0.00277 s⁻¹ and the kon was 65300 M⁻¹ s⁻¹.

B3: VHH Z70 mutant 14 (VHH)
VHH: EVQLQASGGVFVQSGGSLRLSCAASGATSIFDGMGWFRQAPGKEREFVSAISYGQGSYTYYADSVKGRFTISRDNSKNMVYLQMNSLRAEDTATYYCAPAYEGDLYAFDSYGEQGTQVTVSS
notes: as the chain of m1 (VHH Z70); The text says only that G115E is combined with additional substitutions in mutant 14; also called Mut14; source: E. coli BL21 (DE3), periplasm, purified (IMAC, SEC)
For the molecule B3, in experiment [2], the Kd is 74.3 ± 0.8 nM, the koff is 0.0014 s⁻¹ and the kon is 18800 M⁻¹ s⁻¹.

B4: VHH Z70 mutant 12 (S23C + G115E) (VHH)
VHH: EVQLQASGGVFVQSGGSLRLCCAASGATSTFDGMGWFRQAPGKEREFVSAISYEQGSYTYYADSVKGRFTISRDNSKNMVYLQMNSLRAEDTATYYCAPAYEGDLYAFDSYGEQGTQVTVSS
notes: as the chain of m1 (VHH Z70); also called Mut12; source: E. coli BL21 (DE3), periplasm, purified (IMAC, SEC)
In the case of B4, in experiment [2], the Kd was 61.2 ± 0.6 nM, the koff was 0.00207 s⁻¹ and the kon was 33900 M⁻¹ s⁻¹.

B5: VHH Z70 mutant 9 (P101S + G115E) (VHH)
VHH: EVQLQASGGVFVQSGGSLRLSCAASGATSTFDGMGWFRQAPGKEREFVSAISYEQGSYTYYADSVKGRFTISRDNSKNMVYLQMNSLRAEDTATYYCASAYEGDLYAFDSYGEQGTQVTVSS
notes: as the chain of m1 (VHH Z70); also called Mut9; source: E. coli BL21 (DE3), periplasm, purified (IMAC, SEC)
Turning to B5, in experiment [2], the Kd was 51.1 ± 0.6 nM, the koff is 0.00205 s⁻¹ and the kon is 40100 M⁻¹ s⁻¹.

B6: VHH Z70 mutant 20 (R47K + G115E) (VHH)
VHH: EVQLQASGGVFVQSGGSLRLSCAASGATSTFDGMGWFRQAPGKEKEFVSAISYEQGSYTYYADSVKGRFTISRDNSKNMVYLQMNSLRAEDTATYYCAPAYEGDLYAFDSYGEQGTQVTVSS
notes: as the chain of m1 (VHH Z70); Generated by the authors, not found in the screen; also called Mut20; source: E. coli BL21 (DE3), periplasm, purified (IMAC, SEC)
As to B6, in experiment [2], the Kd was 41.8 ± 0.7 nM, the koff was 0.00089 s⁻¹ and the kon was 21300 M⁻¹ s⁻¹.

B7: VHH Z70 mutant 5 (T96S) (VHH)
VHH: EVQLQASGGVFVQSGGSLRLSCAASGATSTFDGMGWFRQAPGKEREFVSAISYEQGSYTYYADSVKGRFTISRDNSKNMVYLQMNSLRAEDTASYYCAPAYEGDLYAFDSYGGQGTQVTVSS
notes: as the chain of m1 (VHH Z70); also called Mut5; source: E. coli BL21 (DE3), periplasm, purified (IMAC, SEC)
For the molecule B7, in experiment [2], the Kd was 80.8 ± 1.5 nM, the koff was 0.000882 s⁻¹ and the kon is 10900 M⁻¹ s⁻¹.

B8: VHH Z70 mutant 1 (G115E) (VHH)
VHH: EVQLQASGGVFVQSGGSLRLSCAASGATSTFDGMGWFRQAPGKEREFVSAISYEQGSYTYYADSVKGRFTISRDNSKNMVYLQMNSLRAEDTATYYCAPAYEGDLYAFDSYGEQGTQVTVSS
notes: as the chain of m1 (VHH Z70); also called Mut1; source: E. coli BL21 (DE3), periplasm, purified (IMAC, SEC)
Take B8: in experiment [2], the Kd is 22.7 ± 0.5 nM, the koff is 0.00242 s⁻¹ and the kon is 107000 M⁻¹ s⁻¹.

B9: VHH Z70 mutant 3 (R47K) (VHH)
VHH: EVQLQASGGVFVQSGGSLRLSCAASGATSTFDGMGWFRQAPGKEKEFVSAISYEQGSYTYYADSVKGRFTISRDNSKNMVYLQMNSLRAEDTATYYCAPAYEGDLYAFDSYGGQGTQVTVSS
notes: as the chain of m1 (VHH Z70); also called Mut3; source: E. coli BL21 (DE3), periplasm, purified (IMAC, SEC)
B9: in experiment [2], the Kd is 80.5 ± 1.5 nM, the koff is 0.0021 s⁻¹ and the kon was 26000 M⁻¹ s⁻¹.
